Results published in the supplement of paper PMC11246515.
± gives the standard deviation of the averaged measurements.

Assay: total protein half-life in vivo (active degradation + dilution); higher = more stable protein
[1] = E. coli NCM3722 delta-clpP delta-lon delta-hslV, growth: N-lim chemostat, doubling time 6 h
[2] = E. coli NCM3722 delta-clpP, growth: N-lim chemostat, doubling time 6 h
[3] = E. coli NCM3722 delta-hslV, growth: N-lim chemostat, doubling time 6 h
[4] = E. coli NCM3722 delta-lon, growth: N-lim chemostat, doubling time 6 h
[5] = E. coli NCM3722 delta-smpB, growth: N-lim chemostat, doubling time 6 h
[6] = wild type E. coli NCM3722, growth: C-lim chemostat, doubling time 3 h
[7] = wild type E. coli NCM3722, growth: C-lim chemostat, doubling time 6 h
[8] = wild type E. coli NCM3722, growth: C-lim chemostat, doubling time 12 h
[9] = wild type E. coli NCM3722, growth: N-lim chemostat, doubling time 6 h
[10] = wild type E. coli NCM3722, growth: N-lim chemostat, doubling time 12 h
[11] = wild type E. coli NCM3722, growth: P-lim chemostat, doubling time 6 h
[12] = wild type E. coli NCM3722, growth: P-lim chemostat, doubling time 12 h

MNFQQLKIIREAARQDYNLTEVANMLFTSQSGVSRHIRELEDELGIEIFVRRGKRLLGMTEPGKALLVIAERILNEASNVRRLADLFTNDTSGVLTIATTHTQARYSLPEVIKAFRELFPEVRLELIQGTPQEIATLLQNGEADIGIASERLSNDPQLVAFPWFRWHHSLLVPHDHPLTQISPLTLESIAKWPLITYRQGITGRSRIDDAFARKGLLADIVLSAQDSDVIKTYVALGLGIGLVAEQSSGEQEEENLIRLDTRHLFDANTVWLGLKRGQLQRNYVWRFLELCNAGLSVEDIKRQVMESSEEEIDYQI
total protein half-life in vivo [1]: 6.2 ± 1.1 h
total protein half-life in vivo [2]: 2.47 ± 0.054 h
total protein half-life in vivo [3]: 0.454 h
total protein half-life in vivo [4]: 0.652 h
total protein half-life in vivo [5]: 0.654 h
total protein half-life in vivo [6]: 1.18 ± 0.11 h
total protein half-life in vivo [7]: 1.156 ± 0.01 h
total protein half-life in vivo [8]: 1.86 h
total protein half-life in vivo [9]: 1.04 ± 0.049 h
total protein half-life in vivo [10]: 1.02 h
total protein half-life in vivo [11]: 2.33 ± 0.71 h
total protein half-life in vivo [12]: 4.48 ± 0.47 h

MRVNLLITMIIFALIWPVTALRAAVSKTTWADAPAREFVFVENNSDDNFFVTPGGALDPRLTGANRWTGLKYTGSGTIYQQSLGYIDNGYNTGLYTNWKFDMWLENSPVSSPLTGLRCINWYAGCNMTTSLILPQTTDASGFYGATVTSGGAKWMHGMLSDAFYQYMQQMPVGSSFTMTINACQTSVNYDASSGARCKDQASGNWYVRNVTHTKAANLRLINTHSLAEVFINSDGVPTLGEGNADCRTQTIGSRSGLSCKMVNYTLQTNGLSNTSIHIFPAIANSSLASAVGAYDMQFSLNGSSWKPVSNTAYYYTFNEMKSADSIYVFFSSNFFKQMVNLGISDINTKDLFNFRFQNTTSPESGWYEFSTSNTLIIKPRDFSISIISDEYTQTPSREGYVGSGESALDFGYIVTTSGKTAADEVLIKVTGPAQVIGGRSYCVFSSDDGKAKVPFPATLSFITRNGATKTYDAGCDDSWRDMTDALWLTTPWTDISGEVGQMDKTTVKFSIPMDNAISLRTVDDNGWFGEVSASGEIHVQATWRNIN
total protein half-life in vivo [1]: 5.48 h
total protein half-life in vivo [2]: 4.16 ± 0.31 h
total protein half-life in vivo [3]: 4.45 ± 0.53 h
total protein half-life in vivo [5]: 5.38 ± 0.3 h
total protein half-life in vivo [6]: 2.41 h
total protein half-life in vivo [7]: 5.13 ± 0.19 h
total protein half-life in vivo [8]: 10.2 ± 0.39 h
total protein half-life in vivo [9]: 5.187 ± 0.038 h
total protein half-life in vivo [10]: 10.3 h
total protein half-life in vivo [11]: 6.55 h
total protein half-life in vivo [12]: 10.9 ± 2.3 h

MANPLYQKHIISINDLSRDDLNLVLATAAKLKANPQPELLKHKVIASCFFEASTRTRLSFETSMHRLGASVVGFSDSANTSLGKKGETLADTISVISTYVDAIVMRHPQEGAARLATEFSGNVPVLNAGDGSNQHPTQTLLDLFTIQETQGRLDNLHVAMVGDLKYGRTVHSLTQALAKFDGNRFYFIAPDALAMPQYILDMLDEKGIAWSLHSSIEEVMAEVDILYMTRVQKERLDPSEYANVKAQFVLRASDLHNAKANMKVLHPLPRVDEIATDVDKTPHAWYFQQAGNGIFARQALLALVLNRDLVL [P0A786]
total protein half-life in vivo [1]: 6.1 ± 1.2 h
total protein half-life in vivo [2]: 4.74 ± 0.28 h
total protein half-life in vivo [3]: 4.54 ± 0.5 h
total protein half-life in vivo [4]: 4.9 ± 0.09 h
total protein half-life in vivo [5]: 5.02 ± 0.63 h
total protein half-life in vivo [6]: 3.22 ± 0.23 h
total protein half-life in vivo [7]: 5.83 ± 0.35 h
total protein half-life in vivo [8]: 10.4 ± 1.8 h
total protein half-life in vivo [9]: 4.75 ± 0.085 h
total protein half-life in vivo [10]: 8.23 ± 1.4 h
total protein half-life in vivo [11]: 5.94 ± 0.21 h
total protein half-life in vivo [12]: 10.7 ± 0.62 h

MEMLSGAEMVVRSLIDQGVKQVFGYPGGAVLDIYDALHTVGGIDHVLVRHEQAAVHMADGLARATGEVGVVLVTSGPGATNAITGIATAYMDSIPLVVLSGQVATSLIGYDAFQECDMVGISRPVVKHSFLVKQTEDIPQVLKKAFWLAASGRPGPVVVDLPKDILNPANKLPYVWPESVSMRSYNPTTTGHKGQIKRALQTLVAAKKPVVYVGGGAITAGCHQQLKETVEALNLPVVCSLMGLGAFPATHRQALGMLGMHGTYEANMTMHNADVIFAVGVRFDDRTTNNLAKYCPNATVLHIDIDPTSISKTVTADIPIVGDARQVLEQMLELLSQESAHQPLDEIRDWWQQIEQWRARQCLKYDTHSEKIKPQAVIETLWRLTKGDAYVTSDVGQHQMFAALYYPFDKPRRWINSGGLGTMGFGLPAALGVKMALPEETVVCVTGDGSIQMNIQELSTALQYELPVLVVNLNNRYLGMVKQWQDMIYSGRHSQSYMQSLPDFVRLAEAYGHVGIQISHPHELESKLSEALEQVRNNRLVFVDVTVDGSEHVYPMQIRGGGMDEMWLSKTERT
total protein half-life in vivo [1]: 5.76 ± 1.1 h
total protein half-life in vivo [2]: 5.31 ± 0.18 h
total protein half-life in vivo [3]: 5.06 ± 0.41 h
total protein half-life in vivo [4]: 5.03 ± 0.088 h
total protein half-life in vivo [5]: 5.13 ± 0.46 h
total protein half-life in vivo [6]: 3.03 ± 0.14 h
total protein half-life in vivo [7]: 6.41 ± 0.94 h
total protein half-life in vivo [8]: 11.1 ± 0.39 h
total protein half-life in vivo [9]: 4.78 ± 0.1 h
total protein half-life in vivo [10]: 8.81 ± 0.62 h
total protein half-life in vivo [11]: 6.092 ± 0.014 h
total protein half-life in vivo [12]: 12 ± 0.24 h

MRLEVFCEDRLGLTRELLDLLVLRGIDLRGIEIDPIGRIYLNFAELEFESFSSLMAEIRRIAGVTDVRTVPWMPSEREHLALSALLEALPEPVLSVDMKSKVDMANPASCQLFGQKLDRLRNHTAAQLINGFNFLRWLESEPQDSHNEHVVINGQNFLMEITPVYLQDENDQHVLTGAVVMLRSTIRMGRQLQNVAAQDVSAFSQIVAVSPKMKHVVEQAQKLAMLSAPLLITGDTGTGKDLFAYACHQASPRAGKPYLALNCASIPEDAVESELFGHAPEGKKGFFEQANGGSVLLDEIGEMSPRMQAKLLRFLNDGTFRRVGEDHEVHVDVRVICATQKNLVELVQKGMFREDLYYRLNVLTLNLPPLRDCPQDIMPLTELFVARFADEQGVPRPKLAADLNTVLTRYAWPGNVRQLKNAIYRALTQLDGYELRPQDILLPDYDAATVAVGEDAMEGSLDEITSRFERSVLTQLYRNYPSTRKLAKRLGVSHTAIANKLREYGLSQKKNEE
total protein half-life in vivo [1]: 6.71 ± 0.79 h
total protein half-life in vivo [2]: 4.83 ± 0.089 h
total protein half-life in vivo [3]: 4.73 ± 0.23 h
total protein half-life in vivo [4]: 6.13 ± 0.71 h
total protein half-life in vivo [5]: 4.6 ± 0.14 h
total protein half-life in vivo [6]: 2.69 ± 0.14 h
total protein half-life in vivo [7]: 5.844 ± 0.052 h
total protein half-life in vivo [8]: 8.21 ± 0.57 h
total protein half-life in vivo [9]: 4.51 ± 0.34 h
total protein half-life in vivo [10]: 8.243 ± 0.066 h
total protein half-life in vivo [11]: 4.84 ± 0.092 h
total protein half-life in vivo [12]: 9.34 ± 0.13 h

MSEDIFDAIIVGAGLAGSVAALVLAREGAQVLVIERGNSAGAKNVTGGRLYAHSLEHIIPGFADSAPVERLITHEKLAFMTEKSAMTMDYCNGDETSPSQRSYSVLRSKFDAWLMEQAEEAGAQLITGIRVDNLVQRDGKVVGVEADGDVIEAKTVILADGVNSILAEKLGMAKRVKPTDVAVGVKELIELPKSVIEDRFQLQGNQGAACLFAGSPTDGLMGGGFLYTNENTLSLGLVCGLHHLHDAKKSVPQMLEDFKQHPAVAPLIAGGKLVEYSAHVVPEAGINMLPELVGDGVLIAGDAAGMCMNLGFTIRGMDLAIAAGEAAAKTVLSAMKSDDFSKQKLAEYRQHLESGPLRDMRMYQKLPAFLDNPRMFSGYPELAVGVARDLFTIDGSAPELMRKKILRHGKKVGFINLIKDGMKGVTVL
total protein half-life in vivo [8]: 9.28 h
